The record followed here is PMC11229371, “The activity of CobB1 protein deacetylase contributes to nucleoid compaction in Streptomyces venezuelae spores by increasing HupS affinity for DNA” (Nucleic Acids Research, 2024).

Data set [1] has as its target T1, His-HupS acetylated in vitro (+AcP) (Streptomyces venezuelae) (UniProt F2R5C9).
T1 sequence: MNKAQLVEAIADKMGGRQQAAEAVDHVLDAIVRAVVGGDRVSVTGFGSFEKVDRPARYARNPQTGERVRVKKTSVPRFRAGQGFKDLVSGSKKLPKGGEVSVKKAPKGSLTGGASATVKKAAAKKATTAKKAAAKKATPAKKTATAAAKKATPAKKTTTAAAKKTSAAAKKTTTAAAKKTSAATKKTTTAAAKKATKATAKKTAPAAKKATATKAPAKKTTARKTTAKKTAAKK
In words: BLI. The following applies: 1 mM Mg2+; lysine-acetylated; BLI: 100 mM Tris-HCl pH 8.0, 200 mM NaCl, 1 mM MgCl2, 0.005% Tween-20, 0.1 mg/ml BSA, 30 C; EMSA: 50 mM Tris-HCl pH 8.0, 150 mM NaCl, 0.02% Tween-20, 10 mM Mg …. On the technique in general: In EMSA bound probe runs differently from free probe, usually more slowly.

Data set [2] has as its target T2, His-HupS (nonacetylated, -AcP) (Streptomyces venezuelae) (UniProt F2R5C9).
T2 sequence: T1 sequence
In words: BLI. Conditions: 1 mM Mg2+; BLI: 100 mM Tris-HCl pH 8.0, 200 mM NaCl, 1 mM MgCl2, 0.005% Tween-20, 0.1 mg/ml BSA, 30 C; EMSA: 50 mM Tris-HCl pH 8.0, 150 mM NaCl, 0.02% Tween-20, 10 mM Mg ….

Regarding two-ends biotinylated dsDNA 300 bp, the figures for the Kd in data set [1] and in data set [2] were 20 nM and 11.3 nM, respectively.

On to one-end biotinylated dsDNA 300 bp, for which the Kd in data set [1] came to 28.6 nM; in data set [2], 17.4 nM.

For orientation: Kd means the constant that tells how readily two partners part at equilibrium. A lower Kd goes with tighter binding.
